Source: the RNAGym collection of RNA variant scans (doi:10.7554/elife.90254)

B1: LINE1-full (parent)
chain: UACGUAGGUGGUUUUCCCCUGAUAGUGCUAAGGGGGCCUGGAAGUUUGGACUGGGCAGAGCUCAACACAGCGUGGCAAAGUGGCUGUGGCUAGACUGCCUCUCUGGAUUCCUCGUCACUCAGCAGGGCAUCUCUGAGAGAAAUGCC

Variants of: B1
Assay: self-cleavage, relative activity (ratio to wild type); higher = more cleavage; in vitro, sequencing; the parent is a self-cleaving ribozyme
UACGUAGGUGGUUUUCCCCUGAUAGUGCUAAGGGGGCCUGGAAGUUUGGACUGGGCAGAGCUCAACACAGCGAGGCAAAGUGGCUGUGGCUAGACUGCCUCUCUAGAUUCCUCGUCACUCAGCAGGGCAUCUCUGAGAGAAAUGCC [U73A G105A] showed a self-cleavage of 2.29.
With UACGUAGGUGGUUUUCCCCUGAUAGUGCUAAGGGGGCCUGGAAGUUCGGACUGGACAGAGCUCAACACAGCGUGGCAAAGUGGCUGUGGCUAGACUGCCUCUCUGGAUUCCUCGUCACUCAGCAGGGCAUCUCUGAGAGAAAUGCC [U47C G55A] the self-cleavage was 0.65.
UACGUAGGUGGUUUUCCCCUGAUAGUGCUAAGGGGGCCUGGAAGUUUGGACUGGGCAGAGCUCAACACAGCGUGGCAAAGUGGCUGUGGCUAGACUGCCUCUCUGGAUUCCUCGUCACUUAGCAGGGCAUCUCUGAGAGGAAUGCC [C120U A140G] showed a self-cleavage of 1.1.
UACGUAGGUGGUUUUCCCCUGAUAGUGCUAAGGGGGCCUGGAAGUUUGGACUGGGCAGAGCUCAACACAGCGUGGCAAAGUGGCUGUGGGUAGACUGCCUCUCUGGAUUCCUCGUCACUCAGCAGGGCAUCUCUGAGAGAAAUGCC [C90G] showed a self-cleavage of 0.03.
In the case of UACGUAAGUGGUUUUCCCCUGAUAGUGCUAAGGGGGCCUGGAAGUUUGGACUGGGCAGAGCUCAACACAGCGUGGCAAAGUGGCUGUGGCUAGGCUGCCUCUCUGGAUUCCUCGUCACUCAGCAGGGCAUCUCUGAGAGAAAUGCC [G7A A94G], the self-cleavage is reported as 0.14.
In the case of UACGUAGGUGGCUUUCCCCUGAUAGUGCUAAGGGGGCCUGGAAGUUUGGACUGGGCAGAGCUCAACACAGCGUGGCAAAGUGGCUGUGGCUAGACUGCCUCUCUGGAUUCCUCGUCACUCAGCAGGGCAUCUCUGUGAGAAAUGCC [U12C A136U], the self-cleavage is reported as 1.43.
Work on UACGUAGGUGGUUAUCCCCUGAUAGUGCUAAGGGGGCCUGGAAGUUUGGACUGGUCAGAGCUCAACACAGCGUGGCAAAGUGGCUGUGGCUAGACUGCCUCUCUGGAUUCCUCGUCACUCAGCAGGGCAUCUCUGAGAGAAAUGCC [U14A G55U] yielded a self-cleavage of 0.28.
In the case of UACGUAGGUGGUUUUCCCCUGAUAGUGCCAAGGGGGCCUGGAAGUUUGGACUGGGCAGAGCUCAUCACAGCGUGGCAAAGUGGCUGUGGCUAGACUGCCUCUCUGGAUUCCUCGUCACUCAGCAGGGCAUCUCUGAGAGAAAUGCC [U29C A65U], the self-cleavage is reported as 0.42.
UACGUAGGUGGUUUUCCCCUGAUAGUGCUUAGGGGGCCUGGAAGUUUGGACUGGGCAGAGCUCAACACAGCGUGGCAAAGUGGCCGUGGCUAGACUGCCUCUCUGGAUUCCUCGUCACUCAGCAGGGCAUCUCUGAGAGAAAUGCC [A30U U85C] gave a self-cleavage of 0.1.
UACGUAGGUGGUUUUCCCCUGAUAGUGCUAAGGGGGCCUGGAAGUUUGGACUGGGCAGAGCUCAACACAGCGUGGCAAAGUGGCUGUGGCUAGACUGCCUCUCUGGAUUCCUCAUCACUCAGCCGGGCAUCUCUGAGAGAAAUGCC [G114A A124C] showed a self-cleavage of 1.62.
Variant UACGUAGGUGGUUUUCCCCUGAUAGUGCUAAGGGGGCCUGGAAGUUUGGACUGGGCAGAGCUCAACACAGCGUGGCAAAGUGGCUGUGGCUAGACUGCCUCUCUGGAUUCCUCGUCACUCUGCAGGGCAUCUUUGAGAGAAAUGCC [A121U C133U] has a self-cleavage of 1.8.
For UACGUAGGUGGUUUUCCCCUGAUAGUGCUAAGGGGGCCUGGAAGUUAGGACUGGGCAGAGCUCAACACAGCGUGGCAAAGUGGCUGUGGCUAGACUGCCUCUCUGGAUUCCUCGUCACUCAGCAGGGCAUCUCUGAGAGAAAUGCU [U47A C146U], the self-cleavage was 1.68.
Variant UACGUAGGUGGUUUUCCCCUGAUAGUGCUAUGGGGGCCUGGAAGUUUGGACUGGGCAGAGCUCAACACAGCGUGGCAAAGUGGCUGUGGCUAGACUGCCUCUCUGGAUUCCUCGUCGCUCAGCAGGGCAUCUCUGAGAGAAAUGCC [A31U A117G] has a self-cleavage of 1.2.
In the case of UACGUAGGUGGUUUUCCCCUGAUAGUGCUAAGGGGGCCUGGAAGUUUGGACUGGGCAGAGCUCAACACAGCGUGGCAAAGUGGCUGUGGCUAGACUGCCUCUCUGGAUUCCUCGUCACUCAGCAGGGCAUCUUUGAGAGGAAUGCC [C133U A140G], the self-cleavage is reported as 1.05.
Variant UACGUAGGUGGUUUUCCCCUGAUAGUGCUAAGGGGGCCUGGGAGUUUGGACUGGGCAGAGCUCAACACAGCGUGGCAAAGUGGCUGUGGCUAGACUGCCUCUCUGGAUUCCUCGUCACUCAGCGGGGCAUCUCUGAGAGAAAUGCC [A42G A124G] has a self-cleavage of 0.87.
In the case of UACGUAGGUGGUUUUCCCCUGAUAGUGCUAAGGGGGCCUGGAUGUUUGGACUGGGCAGAGCUCGACACAGCGUGGCAAAGUGGCUGUGGCUAGACUGCCUCUCUGGAUUCCUCGUCACUCAGCAGGGCAUCUCUGAGAGAAAUGCC [A43U A64G], the self-cleavage is reported as 0.42.
In the case of UACGUAGGUGGUUUUCCCCUGAUAGUGCUAAGGGGGCCUGGAAGUUUGGACUGGGCAGUGCUCAACACAGCGUGGCAAAGUGGCUGUGGCUAGAUUGCCUCUCUGGAUUCCUCGUCACUCAGCAGGGCAUCUCUGAGAGAAAUGCC [A59U C95U], the self-cleavage is reported as 0.19.
In the case of UACGUAGGUGGUUUUCCCCCGAUAGUGCUAAGGGGGCCUGGAUGUUUGGACUGGGCAGAGCUCAACACAGCGUGGCAAAGUGGCUGUGGCUAGACUGCCUCUCUGGAUUCCUCGUCACUCAGCAGGGCAUCUCUGAGAGAAAUGCC [U20C A43U], the self-cleavage is reported as 1.4.
Work on UACGUAGGUGGUUUUCCCCUGAUAGUGCUAAGGGGGCCUGGAAGUUUGGACUGGGCAGAGCUCAACACAGCGUGGCAACGUGGCUGUGGCUAGACUGCCUCUCUGGAUUCCUCGUCACUCAGCAGGGCAUCUCAGAGAGAAAUGCC [A79C U134A] yielded a self-cleavage of 1.24.
UGCGUAGGUGGUUUUCCCCUGAUAGUGCUAAGGGGGCCUGGAAGUUUGGACUGGGCAGAGCUCAACACAGCGUGGCAAAGUGGCUGUGGCUAGACUGCCUCUCUGGAUUCCUCGUCACUCAGCAGGGCAUCUCCGAGAGAAAUGCC [A2G U134C] gave a self-cleavage of 1.35.
Variant UACGUUGGUGGUUUUCCCCUGAUAGUGCUAAGGGGGCCUGGAAGUUUGGACUGGGCAGAGCUCAACACAGCGUGGCAAAGUGGCUGUGGCUAGACUGCCUCCCUGGAUUCCUCGUCACUCAGCAGGGCAUCUCUGAGAGAAAUGCC [A6U U102C] has a self-cleavage of 0.68.
Work on UACGUAGGUGGUUUUCCCCUGAUAGUGCUAAGGGGGCCUGGAAGUUUGGACUGGGCAGAGCUCAACACAGCGUGGCAAAGUGGCUGUGGCUAGUCUGCCUCUCUGGAUACCUCGUCACUCAGCAGGGCAUCUCUGAGAGAAAUGCC [A94U U109A] yielded a self-cleavage of 0.27.
With UACGUAGGUGGUUUUCCCCUGAUAGUGCUAAGGGGGCCUGGAAGUUCGGACUGGGCAGAGCUCAACACAGCGUGGCAAAGUGGCAGUGGCUAGACUGCCUCUCUGGAUUCCUCGUCACUCAGCAGGGCAUCUCUGAGAGAAAUGCC [U47C U85A] the self-cleavage was 0.13.
UACGUAGGUGGUUUUCCCCUGUUAGUGCUAAGGGGGCCUGGAAGUUUGGACUGGGCAGAGCUCAACACAGCAUGGCAAAGUGGCUGUGGCUAGACUGCCUCUCUGGAUUCCUCGUCACUCAGCAGGGCAUCUCUGAGAGAAAUGCC [A22U G72A] showed a self-cleavage of 1.27.
Variant UACGUAGGUGGUUUUCCCCUGAUAGUGCUAAGGGGGCCUGGAAGUUUGGACUGGGCAGAGCUCAACACAGCGUGGCAUAGUGGCUGUGGCUAGACUGCCUCUCUGGAUUCCUCGUCACUCAACAGGGCAUCUCUGAGAGAAAUGCC [A78U G122A] has a self-cleavage of 1.36.
Work on UACGUAGGAGGUUUUCCCCUGAUAGUGCUAAGGGGGCAUGGAAGUUUGGACUGGGCAGAGCUCAACACAGCGUGGCAAAGUGGCUGUGGCUAGACUGCCUCUCUGGAUUCCUCGUCACUCAGCAGGGCAUCUCUGAGAGAAAUGCC [U9A C38A] yielded a self-cleavage of 1.26.
Variant UACGUAGGUGGUGUUCCCCUGAUAGUGCUAAGGGGGCCUGGAAGUUUGGACUGGGCAGAGCUCAACACAGCGUGGCAAAGUGGCUGUGGCUAGACUGCCUCUCUGGAUUCCUCGUCACUCAGCAGGGCAUCUCUGAGAGAGAUGCC [U13G A141G] has a self-cleavage of 0.94.
Variant UACGUAGGUGGUUUUCCCCUGAUAGUGCUAAGGGGGCCUGGAAGGUUGGACUGGGCAGAGCUCAACACAGCGUGGCAAAGUGGCUGUGGCUAGACUGCCUCUCUGGAUUCCUCGUCACUCAGCAGGGCACCUCUGAGAGAAAUGCC [U45G U130C] has a self-cleavage of 2.36.
UACGUAGGUGGUUUUCCCCUGAUUGUGCUAAGGGGGCCUGGAAGUUUGGACUGGGCAGAGCUCAACACAGCGUGGCAAAGUGGCUGUGGCUAGACUGCCUCUCUGGAUUCCUCGUCACUCAGCAGGGCAUCUCUGAUAGAAAUGCC [A24U G137U] showed a self-cleavage of 2.12.
UACGUAGGUGGUUUUCCCCUGAUAGUGCUAAGGGGGCCUGGAAGUUUGGACUGGGCAGAGCUCAACACAGCGUGGCAAAGUGGCUGUGGCUAGACUGCCUCUCUGGAUUCCUAGUCACUCGGCAGGGCAUCUCUGAGAGAAAUGCC [C113A A121G] gave a self-cleavage of 1.25.
For UACGUAGGUGGUUUUCCCCCGAUAGUGCUAAGGGGGCCUGGAAGUUUGGACUGGGCAGAGCUCAACACAGCGUGGCAAAGUGGCUGUGGCUAGACUGCCUCUCUGGAUUCCUCGUCACUCAGAAGGGCAUCUCUGAGAGAAAUGCC [U20C C123A], the self-cleavage was 1.34.
UACGUAGGUGGUAUUCCCCUGAUAGUGCUAAGGGGGCCUGGAAGUUUGGACUGGGCAGAGCUCAACACAGCGUGGCAAAGUGGCUGUGGCUAGACUGCCCCUCUGGAUUCCUCGUCACUCAGCAGGGCAUCUCUGAGAGAAAUGCC [U13A U100C] showed a self-cleavage of 1.28.
In the case of UACGUAGGUGGUUUUCCCCUGAUAGUGCUAAGGGGGCCUGGAAGUUUGGACUGGGCAGAGCUCUACACAGCGUGGCAAAGUGGCUGCGGCUAGACUGCCUCUCUGGAUUCCUCGUCACUCAGCAGGGCAUCUCUGAGAGAAAUGCC [A64U U87C], the self-cleavage is reported as 0.12.
UACGUAGGUGGUUUUCCCCUGAUAGUGCUAAGGGGGCCUGGAAGUUUGGACUGGGCAGAGCUCAACACAGCGUGGCAAAGUGGCUGUGGCAAGACUGCCUCUCAGGAUUCCUCGUCACUCAGCAGGGCAUCUCUGAGAGAAAUGCC [U91A U104A] gave a self-cleavage of 0.46.
With UACGUAGGUGGUUUUCCCCUGAUAGUGCUAAGGGGGCCUGGAAGUUUGGACUGGGCAGAGCUCAGCACAGCGUGGCAAAGUGGCUGUGGCUAGACUGCCUCUCUGGAUUCCUCGUCACUCAGCAGGGCAUCACUGAGAGAAAUGCC [A65G U132A] the self-cleavage was 0.04.
UACGUAGGUGGUUUUCCCCUGAUAGUGCUAAGGGGGCCUGGAAGUUUGGACUGGGCAGAGCUCAACACAGCGUGGCAAAGUGGCUGUGGCCAGACUGCCUCUCUGGAUUCCUCGUCACUCAGCAGGGCAUCUCUGAGAGAUAUGCC [U91C A141U] showed a self-cleavage of 0.51.
Variant UACGUAGGUGGUUUUCCCCUGAUAGUGCUAAGGGGGCCUGGAAGCUUGGACUGGGCAGAGCUCAACACAGCGUGGCAAAGUGGCUGUGGCUAGACUGCCUCUCUGGAUUCCCCGUCACUCAGCAGGGCAUCUCUGAGAGAAAUGCC [U45C U112C] has a self-cleavage of 1.27.
With UACGUAGGUGGUUUUCCCCUGAUAGUGCUAAGGGGGCCUGGAAGUUUGGACUGGGCCGAGCUCAACACAGCGUGGCAAAGUGGCUGUGGCUAGACUGCCUCUCUGGUUUCCUCGUCACUCAGCAGGGCAUCUCUGAGAGAAAUGCC [A57C A107U] the self-cleavage was 0.07.
Variant UGCGUAGGUGGUUUUCCCCUGAUAGUGCUAAGGGGGCCUGGAAGUCUGGACUGGGCAGAGCUCAACACAGCGUGGCAAAGUGGCUGUGGCUAGACUGCCUCUCUGGAUUCCUCGUCACUCAGCAGGGCAUCUCUGAGAGAAAUGCC [A2G U46C] has a self-cleavage of 0.72.
